This is an account of results in publication PMC11582648 (Nature Communications, 2024).

The target in the experiment is T1, GST-CK1δ (human, UniProt P48730-2 1-409).
T1 sequence: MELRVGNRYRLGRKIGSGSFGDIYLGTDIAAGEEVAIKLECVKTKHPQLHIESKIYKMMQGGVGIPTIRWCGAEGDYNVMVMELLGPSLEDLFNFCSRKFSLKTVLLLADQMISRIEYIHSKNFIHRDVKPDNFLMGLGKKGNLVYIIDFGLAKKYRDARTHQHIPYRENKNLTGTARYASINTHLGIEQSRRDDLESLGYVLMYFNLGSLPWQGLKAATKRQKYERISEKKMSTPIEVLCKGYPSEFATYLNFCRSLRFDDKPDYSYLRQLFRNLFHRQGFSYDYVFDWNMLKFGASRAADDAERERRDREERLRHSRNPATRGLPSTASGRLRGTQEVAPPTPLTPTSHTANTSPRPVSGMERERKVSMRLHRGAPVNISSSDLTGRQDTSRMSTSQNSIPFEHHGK
Description: pull-down.

B1: His-USP46 (enzyme)
chain: MTVRNIASICNMGTNASALEKDIGPEQFPINEHYFGLVNFGNTCYCNSVLQALYFCRPFRENVLAYKAQQKKKENLLTCLADLFHSIATQKKKVGVIPPKKFISRLRKENDLFDNYMQQDAHEFLNYLLNTIADILQEEKKQEKQNGKLKNGNMNEPAENNKPELTWVHEIFQGTLTNETRCLNCETVSSKDEDFLDLSVDVEQNTSITHCLRDFSNTETLCSEQKYYCETCCSKQEAQKRMRVKKLPMILALHLKRFKYMEQLHRYTKLSYRVVFPLELRLFNTSSDAVNLDRMYDLVAVVVHCGSGPNRGHYITIVKSHGFWLLFDDDIVEKIDAQAIEEFYGLTSDISKNSESGYILFYQSRE
Turning to B1, the binding result was “binds”.
